Residue numbers refer to the chain shown, from its start.
T1: HCV Core1-169 (HCV-1, UniProt P26664 1-169)
T1 construct: also called recombinant HCV core antigen
T1 sequence: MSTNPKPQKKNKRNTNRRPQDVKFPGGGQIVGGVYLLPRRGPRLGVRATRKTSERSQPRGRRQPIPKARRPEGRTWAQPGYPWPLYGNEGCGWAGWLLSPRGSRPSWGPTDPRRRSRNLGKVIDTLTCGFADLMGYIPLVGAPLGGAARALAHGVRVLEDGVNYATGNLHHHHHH

T2: HCV Core1-169 recombinant antigen (hepatitis C virus (HCV-1), UniProt P26664 1-169)
T2 sequence: T1 sequence

B1: HCV 208B-672 (antibody, V domains shown)
VH: EVKLVESGGSLVQPGGSLKLSCAASGFNFNTYAMSWVRQTPEKRLEWVAYISNGGGNTYYVDTVKGRFTISRDNAKNTLYLRMSSLKSEDTAMYYCARHGLYWGYSMDYWGQGTSVTVSS
VL: DIQMTQSPSSLSASLGERVSLTCRASQDIGGSINWLQQEPDGTIKRLIYATSSLDSGVPKRFSGSRSGSDYSLTISSLESEDFVDYYCLQYASSPPTFGGGTKLEIKR
B2: HCV 208B-793 (antibody, V domains shown)
VH: EVKLVESGGGLVQPGGSLKLSCAASGFTFSSYAMSWVRQTPERRLEWVTYISNGGGSTYYSDTVKGRFTFSRDNAKNTLYLQMSSLKSEDTAMYYCARHGLGRTGFASWGQGTLVTVSA
VL: DIVMTQSHKFMSTSVGDRVSITCKASQDVGTAVAWYQQKPGQSPKLLIYWASTRHTGVPDRFTGSGSGTDFTLTISNVQSEDLADYFCQQYSNYLTFGAGTKLEVKR
B3: HCV 208B-822 (antibody, V domains shown)
VH: QVQLKQSGPGLVQPSQSLSITCTVSGFSLITYGVHWVRQSPGKGLEWLGVIWGGGSTGYNAAFVSRLNITKDNSKSQVFFKMNSLQPDDTAIYYCARNGGATVFDYWGQGTTLTVSS
VL: DIVMTQSPATLSVTPGDRVSLSCRASQTISDYLHWYQQKSHESPRLLIKYASQSISGIPSRFSGSGSGSHFTLSINSVEPEDVGVYYCQNGHSFPWTFGGGTKLEIKR
B4: HCV 208B-826 (antibody, V domains shown)
VH: DVQLVESGGGLVQAGGSRKLSCAASGFPFSSFGMHWVRQAPEKGLEWVASISSRTSKIYYADNLKGRFTISRDNPKNTLFLQMTSLGSEDTAMYYCVRSVFGNSYWFFDVWGAGTTVTVSS
VL: DIVLTQSPATLSVTPGDRVSLSCRASQRIYNYLHWYQQKSHESPRLLTKYASQSISGIPSRFSGSGSGTDFILTINSVETEDFGMYFCQQSNSWPLTFGAGTKLELRR
B5: HCV 208B-911 (antibody, V domains shown)
VH: QVHLQQPGAELVRPGVSVKLSCKASGYTFTTYSINWMKQRPGQGLEWIGNIYPSTSHTNYNQKFRDKATMTVDKSSSTAYMQLSSPTSEDSAVYYCTINAYSMDYWGQGTSVTVSS
VL: QIVLTQSPEIMSASPGEKVTITCSASSSVSFMYWFQQKPGTSPKLWIYITSNLASGVPTRFSGSGSGTSYSLTISRMEAEDAATYYCQQRSSFPYTFGGGTKLEMKR
B6: HCV 208A-110 monoclonal antibody (antibody, V domains shown)
VH: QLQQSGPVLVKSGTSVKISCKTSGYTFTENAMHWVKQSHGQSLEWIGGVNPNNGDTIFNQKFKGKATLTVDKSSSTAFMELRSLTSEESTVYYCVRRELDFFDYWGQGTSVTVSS
VL: DIVLTQSPASLAVSLGQRATISCRASQSVSTSRYSYMHWYQQKPGQPPKLLIKYASNLESGVPARFSGSGSGTDFTLNIHPVAEEDTAAYYCQHSWEFPFTFGSGTKLEIKR
B7: HCV 208A-692 monoclonal antibody (antibody, V domains shown)
VH: QGQMQQSGAELAKPGASVKLSCKTSGFTFSSSYISWLKQKPGQSLEWIAWIFAGTGNTNYNQKFTDKAQLTVDTSSSTAYMQLSSLTTEDSAIYYCAISGTGFTYWGQGTLVTVSA
VL: EVLMTQSPLSLPVSLGDQASISCRSSQSLEHSNGNTYLEWFLQRPGQPPKLLIYKVSSRFSGVPDRFSGSGSGTDFTLKISRVEAEDLGVYYCFQGSHVPFTFGSGTKLAIKR
B8: HCV 208A-293 monoclonal antibody (antibody, V domains shown)
VH: EVQLQQSGPELVKPGASVKISCKASGFTFTEYAMHWMKQSHGKSLEWIGGINPTNGDAIYNQKFKDKAKLTVDRSSSTAYMELRSLTSDDSALFYCARRELDYFPSWGQGTTLTVSS
VL: B6 VL with A12I, Y34F, M37V, Y40I, A64V, T76I, A83E, A89T, Y91F
B9: HCV 208A-557 monoclonal antibody (antibody, V domains shown)
VH: B7 VH with A12V, F52Y
VL: B6 VL with V3A, K49E, A83G, A89T, E97D
B10: 208A-207-271 monoclonal antibody (antibody, V domains shown)
VH: QGQLQQPGAEFVKPGASLKLSCRASGYTFTSYWIHWVKQRPGQGLEWIGEIDPSDSYINQNQKFRGKATLTVDKSSSTAYMELSGLTSEDSAVYYCARHYYGVLDSWGQGTTLTVSS
VL: B4 VL
B11: HCV 208B-1096 monoclonal antibody (antibody, V domains shown)
VH: QVQLQQSGAGLAKPGASVKMSCKASGYTFTANKMHWAKQRPGQGLEWIGYIDPSSGYTEYNHKIQYKATLTADTSSSTAYMQLSTLTFEDSAVYYCTNFAYWGQGTLVTVSA
VL: DIVMTQTPLTLSVTIGQPASISCKSSQSLLFTNGKTYLNWFLQRPGQSPKRLIYLLSKLDSGVPDRFSGSGSGTDFTLKISRVEAEDLGVYYCLQSTYFPLTFGAGTKLELKR
B12: HCV 208A-207 (antibody, V domains shown)
VH: B10 VH
VL: B4 VL
B13: HCV 208A-210 (antibody, V domains shown)
VH: QVQLQQSGPELVKPGASMRISCKASGYTFTSYYVHWIKQRPGQGLEWIGCIYPGDVNTDYNEKFKGKATLTADKSSSTAYMQVSTLTSEDSAIYFCVLYYYGSFAYWGQGTLVTVSA
VL: EIVLTQSPAITAASLGQNVTITCRASSSVSYMHWYRQKSGTSPQLWIYEISRRASGVPARFRASGSGTSYSLTISSMEAEDAAIYYCQQWNYPLTFGAGTKLEVKR

Columns and labels:
HCV Core1-169 [1] = molecular target: T1, HCV Core1-169; assay: EIA, core1-169 coated on plate
HCV Core1-169 [2] = molecular target: T1, HCV Core1-169; assay: EIA, core1-169 captured by mAb 14-153-229
[3] = molecular target: T2, HCV Core1-169 recombinant antigen; assay: sandwich EIA, 25 ng/ml core1-169; capture mAb C11-7
[4] = molecular target: T2, HCV Core1-169 recombinant antigen; assay: sandwich EIA, 25 ng/ml core1-169; capture mAb C11-9
[5] = molecular target: T2, HCV Core1-169 recombinant antigen; assay: sandwich EIA, 25 ng/ml core1-169; capture mAb 208A-110
[6] = molecular target: T2, HCV Core1-169 recombinant antigen; assay: sandwich EIA, 25 ng/ml core1-169; capture mAb 208A-293
[7] = molecular target: T2, HCV Core1-169 recombinant antigen; assay: sandwich EIA, 25 ng/ml core1-169; capture mAb 208A-557
[8] = molecular target: T2, HCV Core1-169 recombinant antigen; assay: sandwich EIA, 25 ng/ml core1-169; capture mAb 208A-692
[9] = molecular target: T2, HCV Core1-169 recombinant antigen; assay: sandwich EIA, 25 ng/ml core1-169; capture mAb 208B-741
[10] = molecular target: T2, HCV Core1-169 recombinant antigen; assay: sandwich EIA, 25 ng/ml core1-169; capture mAb 208B-1096
[11] = molecular target: T2, HCV Core1-169 recombinant antigen; assay: sandwich EIA, 25 ng/ml core1-169; capture NC capture mAb
[12] = molecular target: T2, HCV Core1-169 recombinant antigen; assay: sandwich EIA, 25 ng/ml core1-169; capture mAb 208A-207-271
[13] = molecular target: T2, HCV Core1-169 recombinant antigen; assay: sandwich EIA, 25 ng/ml core1-169; capture mAb 208B-395-334
[14] = molecular target: T2, HCV Core1-169 recombinant antigen; assay: sandwich EIA, 25 ng/ml core1-169; capture mAb 208B-612-226

Binder | OD (A492) (HCV Core1-169 [1]) | OD (A492) (HCV Core1-169 [2]) | OD492 nm [3] | OD492 nm [4] | OD492 nm [5] | OD492 nm [6] | OD492 nm [7] | OD492 nm [8] | OD492 nm [9] | OD492 nm [10] | OD492 nm [11] | OD492 nm [12] | OD492 nm [13] | OD492 nm [14]
B1 | 1.77 OD | 0.99 OD | – | – | – | – | – | – | – | – | – | – | – | –
B2 | 0.85 OD | 0.17 OD | – | – | – | – | – | – | – | – | – | – | – | –
B3 | 0.22 OD | 0.12 OD | – | – | – | – | – | – | – | – | – | – | – | –
B4 | 0.65 OD | 0.72 OD | – | – | – | – | – | – | – | – | – | – | – | –
B5 | 1.18 OD | 0.14 OD | – | – | – | – | – | – | – | – | – | – | – | –
B6 | – | – | 0.18 OD492 | 0.13 OD492 | 0.18 OD492 | 0.2 OD492 | 0.17 OD492 | 0.14 OD492 | 0.2 OD492 | 0.21 OD492 | 0.15 OD492 | 0.17 OD492 | 0.22 OD492 | 0.2 OD492
B7 | – | – | 2.92 OD492 | 2.66 OD492 | 0.54 OD492 | 0.51 OD492 | 0.53 OD492 | 0.35 OD492 | 0.44 OD492 | 0.38 OD492 | 0.4 OD492 | 0.39 OD492 | 0.44 OD492 | 0.37 OD492
B8 | – | – | 2.87 OD492 | 2.6 OD492 | 0.52 OD492 | 0.49 OD492 | 0.52 OD492 | 0.34 OD492 | 0.5 OD492 | 0.41 OD492 | 0.37 OD492 | 0.39 OD492 | 0.44 OD492 | 0.37 OD492
B9 | – | – | 0.22 OD492 | 0.14 OD492 | 0.44 OD492 | 0.41 OD492 | 0.32 OD492 | 0.13 OD492 | 0.38 OD492 | 0.35 OD492 | 0.18 OD492 | 0.18 OD492 | 0.28 OD492 | 0.25 OD492
B10 | – | – | 2.47 OD492 | 2.2 OD492 | 0.38 OD492 | 0.42 OD492 | 0.82 OD492 | 0.42 OD492 | 0.3 OD492 | 0.33 OD492 | 0.37 OD492 | 0.36 OD492 | 0.37 OD492 | 0.33 OD492
B11 | – | – | 1.06 OD492 | 0.33 OD492 | 0.19 OD492 | 0.24 OD492 | 0.17 OD492 | 0.15 OD492 | 0.23 OD492 | 0.26 OD492 | 0.17 OD492 | 0.18 OD492 | 0.2 OD492 | 0.24 OD492
B12 | 0.11 OD | 0.41 OD | – | – | – | – | – | – | – | – | – | – | – | –
B13 | 0.87 OD | 0.87 OD | – | – | – | – | – | – | – | – | – | – | – | –

From patent US20170052184A1 (published 2017)
